These results are taken from IntAct's records for PubMed 17548821.

Experiment [1] concerns the target lrp8_human LRP8 (UniProt Q14114).
Experiment [2] deals with vldlr_human VLDLR (UniProt P98155).

Chain of lrp8_human LRP8 (Q14114 whole entry): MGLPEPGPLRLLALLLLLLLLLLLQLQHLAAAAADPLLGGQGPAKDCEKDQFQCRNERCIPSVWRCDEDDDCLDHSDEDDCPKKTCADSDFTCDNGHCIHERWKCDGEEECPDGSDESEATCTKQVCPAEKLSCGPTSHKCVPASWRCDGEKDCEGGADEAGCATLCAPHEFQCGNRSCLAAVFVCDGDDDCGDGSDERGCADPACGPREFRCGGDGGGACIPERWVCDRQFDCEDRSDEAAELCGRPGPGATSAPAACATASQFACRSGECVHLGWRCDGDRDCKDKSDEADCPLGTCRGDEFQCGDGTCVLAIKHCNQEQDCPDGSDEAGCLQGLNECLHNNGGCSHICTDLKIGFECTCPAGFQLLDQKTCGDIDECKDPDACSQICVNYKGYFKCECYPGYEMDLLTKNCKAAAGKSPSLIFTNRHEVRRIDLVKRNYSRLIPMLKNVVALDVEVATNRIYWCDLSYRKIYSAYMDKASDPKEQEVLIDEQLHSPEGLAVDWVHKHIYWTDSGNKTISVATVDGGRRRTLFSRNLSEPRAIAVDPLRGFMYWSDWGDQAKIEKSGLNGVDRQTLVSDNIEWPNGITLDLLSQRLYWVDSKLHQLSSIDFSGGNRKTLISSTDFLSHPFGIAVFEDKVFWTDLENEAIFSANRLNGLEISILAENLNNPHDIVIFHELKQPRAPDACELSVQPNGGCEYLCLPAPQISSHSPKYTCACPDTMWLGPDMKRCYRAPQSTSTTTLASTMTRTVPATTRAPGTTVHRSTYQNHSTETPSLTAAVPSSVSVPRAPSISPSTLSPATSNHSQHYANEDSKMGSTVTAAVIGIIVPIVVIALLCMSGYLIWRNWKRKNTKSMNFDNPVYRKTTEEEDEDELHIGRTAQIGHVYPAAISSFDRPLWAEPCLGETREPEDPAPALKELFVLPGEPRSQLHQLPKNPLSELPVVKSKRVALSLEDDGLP

For the substance “Reelin (Mus musculus), Q60841 K2360A;K2467A”, the “effect of a mutation on the interaction” value in experiment [1] is recorded as “disrupting interaction strength”.
Regarding Reelin (Mus musculus), Q60841 K2467A, the “effect of a mutation on the interaction” value in experiment [1] and in experiment [2] was “disrupting interaction strength” each time.
Consider Reelin (Mus musculus), Q60841 K2360A, for which the “effect of a mutation on the interaction” value in experiment [1] is “disrupting interaction strength”.
